Substrate inhibition, units and Specific activity data for two molecules are collected here from patent publication US6890910B1, “Murd protein and gene of Pseudomonas aeruginosa” (Merck & Co., Inc., priority 1998, dated 2005).

The target of series [1] is recombinant MurD from E. coli (Escherichia coli, UniProt P14900). Particulars: 350 μM UDP-N-acetyl-muramyl-L-alanine.
Method: The ATP-dependent MurD activity was assayed by monitoring the formation of product ADP using the pyruvate kinase and lactate dehydrogenase coupled enzyme assay. The reaction was monitored spectrophotometrically.
Typically, the assay contained 100 mM BIS-TRIS-propane, pH 8.0, 200 μM NADH, 1 mM ATP, 20 mM PEP, 5 mM MgCl2, 1 mM DTT, 350 μM UDP-N-acetyl-muramyl-L-alanine, 1 mM D-glutamate, 33 units/ml of pyruvate kinase and 1660 units/ml of lactate dehydrogenase in a final volume of 200 or 400 μl. The mixture was incubated at 25° C. for 5 min and the reaction initiated by the addition of 1-10 μg of MurD.
Rates were calculated from the linear portions of the progress curves using the extinction coefficient for NADH, e=6220 cm^−1 M^−1. One unit of MurD activity is equal to 1 μmol of ADP formed per min at 25° C.
The target of series [2] is T1, recombinant MurD from P. aeruginosa (Pseudomonas aeruginosa, UniProt Q9HVZ9).
T1 construct: 6x His (pET-15b vector-encoded) (N); made in house; host or cells: E. coli BL21 (DE3)/pLysS
T1 sequence (Q9HVZ9 whole entry, looked up): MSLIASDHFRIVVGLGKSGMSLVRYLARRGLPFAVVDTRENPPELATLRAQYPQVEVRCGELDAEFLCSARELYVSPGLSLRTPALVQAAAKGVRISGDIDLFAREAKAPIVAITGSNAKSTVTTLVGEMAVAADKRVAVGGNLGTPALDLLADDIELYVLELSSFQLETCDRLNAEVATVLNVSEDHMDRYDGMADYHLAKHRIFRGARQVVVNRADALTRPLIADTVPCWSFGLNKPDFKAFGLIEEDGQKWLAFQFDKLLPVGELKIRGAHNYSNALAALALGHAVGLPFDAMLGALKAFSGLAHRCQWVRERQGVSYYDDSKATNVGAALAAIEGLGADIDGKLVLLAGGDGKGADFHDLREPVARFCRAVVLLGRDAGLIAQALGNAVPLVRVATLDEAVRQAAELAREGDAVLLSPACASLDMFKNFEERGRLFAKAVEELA
Briefly: ATP-dependent MurD activity, pyruvate kinase/lactate dehydrogenase coupled enzyme assay. The class given is biochemical. Particulars: UDP-N-acetylmuramyl-L-ala 350 μM, D-glutamate 1 mM, ATP 1 mM, 200 μl at 25° C. The text has this:
The reaction was monitored spectrophotometrically.

Sequence of recombinant MurD from E. coli (P14900 whole entry): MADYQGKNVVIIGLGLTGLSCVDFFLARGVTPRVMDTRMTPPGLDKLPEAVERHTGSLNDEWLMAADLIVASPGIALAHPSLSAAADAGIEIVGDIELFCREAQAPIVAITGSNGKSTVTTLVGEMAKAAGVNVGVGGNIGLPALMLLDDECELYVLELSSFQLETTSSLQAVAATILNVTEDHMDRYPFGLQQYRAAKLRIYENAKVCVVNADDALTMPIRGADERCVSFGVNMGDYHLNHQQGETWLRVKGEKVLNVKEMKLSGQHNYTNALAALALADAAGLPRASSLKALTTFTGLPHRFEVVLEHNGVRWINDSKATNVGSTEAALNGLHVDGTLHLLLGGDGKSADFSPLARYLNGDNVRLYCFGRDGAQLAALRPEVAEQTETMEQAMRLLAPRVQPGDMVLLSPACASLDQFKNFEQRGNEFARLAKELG

In the case of `CC(=O)N[C@H]1C(OP(=O)(O)OP(=O)(O)OC[C@H]2O[C@@H](n3ccc(=O)[nH]c3=O)[C@H](O)[C@@H]2O)O[C@H](CO)[C@@H](O)[C@@H]1O[C@H](C)C(=O)N[C@H](C)C(=O)O` (stereo partly drawn) [UDP-N-acetyl-muramyl-L-alanine], the substrate inhibition result in series [1] is “substrate inhibition of the E. coli MurD occurs”.

B1: P. aeruginosa MurD: Recombinant UDP-N-acetylmuramyl-L-alanine:D-glutamate ligase of Pseudomonas aeruginosa, over-produced as His-tagged fusion protein in E. coli (protein, listed as Pseudomonas aeruginosa)
chain: MSLIASDHFRIVVGLGKSGMSLVRYLARRGLPFAVVDTRENPPELATLRAQYPQVEVRCGELDAEFLCSARELYVSPGLSLRTPALVQAAAKGVRISGDIDLFAREAKAPIVAITGSNAKSTVTTLVGEMAVAADKRVAVGGNLGTPALDLLADDIELYVLELSSFQLETCDRLNAEVATVLNVSEDHMDRYDGMADYHLAKHRIFRGARQVVVNRADALTRPLIADTVPCWSFGLNKPDFKAFGLIEEDGQKWLAFQFDKLLPVGELKIRGAHNYSNALAALALGHAVGLPFDAMLGALKAFSGLAHRCQWVRERQGVSYYDDSKATNVGAALAAIEGLGADIDGKLVLLAGGDGKGADFHDLREPVARFCRAVVLLGRDAGLIAQALGNAVPLVRVATLDEAVRQAAELAREGDAVLLSPACASLDMFKNFEERGRLFAKAVEELA
modifications: His tag
notes: Recombinant UDP-N-acetylmuramyl-L-alanine:D-glutamate ligase of Pseudomonas aeruginosa, over-produced as His-tagged fusion protein in E. coli
Take B1: the units in series [2] (0.0015 mg protein) is 0.0047 µmol/min. In addition, the Specific activity in series [2] was 3.12 (μmol/min)/mg.
